Assay results reported in publication PMC2740933.

Target: Moloney murine leukemia virus reverse transcriptase N-terminal fragment (MMLV RT) (Moloney murine leukemia virus, UniProt P03355 683-937)
Test: X-ray crystallography

Sequence of Moloney murine leukemia virus reverse transcriptase N-terminal fragment (MMLV RT) (P03355 683-937): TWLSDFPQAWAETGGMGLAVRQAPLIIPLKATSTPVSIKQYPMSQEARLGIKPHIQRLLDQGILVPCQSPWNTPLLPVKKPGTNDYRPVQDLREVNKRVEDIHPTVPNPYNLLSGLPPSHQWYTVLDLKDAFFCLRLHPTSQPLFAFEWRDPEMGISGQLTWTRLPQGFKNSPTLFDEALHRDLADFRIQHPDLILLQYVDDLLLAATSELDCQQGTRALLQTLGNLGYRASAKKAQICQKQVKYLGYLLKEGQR

B1: 16-mer AATT duplex (dsDNA)
DNA 1: CTTAATTCGAATTAAG
DNA 2: CTTAATTCGAATTAAG
binding result: binds
